± gives the uncertainty stated by the source.
Test: self-splicing fitness, log relative to wild type (ln ratio); higher = more splicing; Tetrahymena group I intron in knt gene, E. coli kanamycin selection, DiMSum; sequences stand for … in CUCUCU…GGAGGGAAAAGUUAUCAGGCAUGCACCUGGUAGCUAGUCUUUAAACCAAUAGAUUGCAUCGGUUUAAAAGGCAAGACCGUCAAAUUGCGGGAAAGGGGUCAACAGCCGUUCAGUACCAAGUCUCAGGGGAAACUUUGAGAUGGCCUUGCAAAGGGUAUGGUAAUAAGCUGACGGACAUGGUCCUAACCACGCAGCCAAGUCCUAAGUCAACAGAUCUUCUGUUGAUAUGGAUGCAGUUCACAGACUAAAUGUCGGUCGGGGAAGAUGUAUUCUUCUCAUAAGAUAUAGUCGGACCUCUCCUUAAUGGGAGCUAGCGGAUGAAGUGAUGCAACACUGGAGCCGCUGGGAACUAAUUUGUAUGCGAAAGUAUAUUGAUUAGUUUUGGAGUACUCGUGGUCG
In short: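 DiMSum derived fitness as the error-weighted combination of fold changes across replicates, kanamycin versus no kanamycin, normalised to wild type. E. coli BL21(DE3) held the library, which randomised all eight P1ex-region intron nucleotides within the knt kanamycin-resistance gene on pET-22b(+). Six replicate transformations grew overnight at 37°C or 30°C on LB agar with or without 25 μg/mL kanamycin, also containing 100 μg/mL carbenicillin, 50 μM IPTG and 0.2% rhamnose, and pooled colonies were amplicon-sequenced on an Illumina HiSeq 2500.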

Sequence | self-splicing fitness (ln) (30 °C) | self-splicing fitness (ln) (37 °C)
GCUAAGCAAUAUUACGGCGU | -0.935 ± 0.068 | -0.141 ± 0.091
GCUAAGCAAUAUUACGGCUA | -0.811 ± 0.093 | -0.399 ± 0.11
GCUAAGCAAUAUUACGUCGG | -1.33 ± 0.099 | -0.876 ± 0.13
GCUAAGCAAUAUUACGUGAU | -1.18 ± 0.073 | -0.96 ± 0.11
GCUAAGCAAUAUUACGUUAC | -3.73 ± 0.26 | -1.01 ± 0.16
GCUAAGCAAUAUUACGUUCA | -1.08 ± 0.07 | -0.54 ± 0.092
GCUCAGCAAUAUUACGAAAU | -1.13 ± 0.11 | -0.319 ± 0.12
GCUCAGCAAUAUUACGACAU | -0.812 ± 0.012 | -0.159 ± 0.032
GCUCAGCAAUAUUACGACGG | -2.33 ± 0.18 | -1.3 ± 0.16
GCUCAGCAAUAUUACGAGUA | -0.337 ± 0.098 | -0.433 ± 0.1
GCUCAGCAAUAUUACGAGUC | -4.08 ± 0.26 | –
GCUCAGCAAUAUUACGAUAC | -1.15 ± 0.13 | -0.697 ± 0.17
GCUCAGCAAUAUUACGAUAU | -0.622 ± 0.084 | 0.0543 ± 0.09
GCUCAGCAAUAUUACGAUGU | 0.0549 ± 0.065 | -0.345 ± 0.077
GCUCAGCAAUAUUACGCAAG | -2.83 ± 0.42 | -1.69 ± 0.23
GCUCAGCAAUAUUACGCAUA | -1.48 ± 0.18 | 0.283 ± 0.17
GCUCAGCAAUAUUACGCUAG | -1.03 ± 0.075 | -0.659 ± 0.11
GCUCAGCAAUAUUACGGACU | 0.158 ± 0.12 | 0.485 ± 0.19
GCUCAGCAAUAUUACGGCAU | -2.29 ± 0.2 | -1.72 ± 0.15
GCUCAGCAAUAUUACGGGCC | -2.8 ± 0.2 | -3.37 ± 0.25
GCUCAGCAAUAUUACGGGGU | -3.51 ± 0.15 | -1.39 ± 0.14
GCUCAGCAAUAUUACGGGUC | -3.6 ± 0.22 | -2.91 ± 0.23
GCUCAGCAAUAUUACGGUCA | -1.12 ± 0.09 | -0.085 ± 0.082
GCUCAGCAAUAUUACGUAAC | -1 ± 0.087 | -0.439 ± 0.11
GCUCAGCAAUAUUACGUCGA | -3.22 ± 0.17 | -2.45 ± 0.16

Sequence | self-splicing fitness (ln) (30 °C) | self-splicing fitness (ln) (37 °C)
GCUCAGCAAUAUUACGUCGC | -1.95 ± 0.17 | -0.137 ± 0.16
GCUCAGCAAUAUUACGUGCU | -2.26 ± 0.086 | -0.582 ± 0.09
GCUCAGCAAUAUUACGUGGC | -3.61 ± 0.19 | -2.79 ± 0.3
GCUGAGCAAUAUUACGAAGA | -2.11 ± 0.21 | -0.81 ± 0.17
GCUGAGCAAUAUUACGACGU | -1.45 ± 0.057 | -0.232 ± 0.064
GCUGAGCAAUAUUACGACUC | -0.148 ± 0.2 | -0.469 ± 0.21
GCUGAGCAAUAUUACGAUAG | -1.35 ± 0.25 | -1.83 ± 0.26
GCUGAGCAAUAUUACGAUUA | -2.88 ± 0.37 | -0.431 ± 0.38
GCUGAGCAAUAUUACGCCAC | -4.02 ± 0.27 | -2.27 ± 0.26
GCUGAGCAAUAUUACGCCCG | -2.34 ± 0.27 | -0.207 ± 0.42
GCUGAGCAAUAUUACGCGUA | – | -2.23 ± 0.37
GCUGAGCAAUAUUACGCUAA | -3.04 ± 0.32 | –
GCUGAGCAAUAUUACGGAGA | -2.79 ± 0.43 | -1.85 ± 0.28
GCUGAGCAAUAUUACGGAGU | – | -2.38 ± 0.31
GCUGAGCAAUAUUACGGCAU | -2.59 ± 0.2 | -1.82 ± 0.18
GCUGAGCAAUAUUACGGCCC | – | -2.32 ± 0.35
GCUGAGCAAUAUUACGGCGU | -0.642 ± 0.14 | 0.234 ± 0.15
GCUGAGCAAUAUUACGGUUG | -3.64 ± 0.31 | -2.67 ± 0.35
GCUGAGCAAUAUUACGUAAC | -2.3 ± 0.24 | -1.6 ± 0.36
GCUGAGCAAUAUUACGUACC | -1.54 ± 0.13 | -0.328 ± 0.18
GCUGAGCAAUAUUACGUCCU | -1.52 ± 0.15 | -1.06 ± 0.2
GCUGAGCAAUAUUACGUCGC | -2.96 ± 0.26 | -2.17 ± 0.24
GCUGAGCAAUAUUACGUCGG | – | -1.27 ± 0.41
GCUGAGCAAUAUUACGUGAA | -2.63 ± 0.22 | -1.35 ± 0.23

Reference: the supplement of paper PMC7877785
